According to the domain aggregation screens of Martell et al. (2025):

Experiment: soluble fraction after stress (log2 fold change); higher = more stays soluble; pooled small domains, quantitative proteomics
Conditions: stress: 50 degC
Procedure, shortened: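 The measure of aggregation propensity here is the base-two logarithm of the fold change in the soluble amount of each protein after stress. A higher value means more of that protein stays in solution. Stress was applied at 50°C to pooled libraries of small protein domains, read out by high-throughput quantitative proteomics.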

Sequence	soluble fraction (log2)
HMGMESFWNRVANLLNTSTVVELAQILDVKRSTLSSWIHSDRRPPMEVLLKITRLTGVDIHRLE	-1.56
HMTAMDTQQKKLIIMYHDIHRLRNVEHFTIQRIADHLLLNFRTVKKFLEMTQEEFDKFSENRW	-3.01
HMAAVSTDEEFAALGIPAEWIPVLKSNGFQTVESLKKVAPGALFNQLGGLRKKNKLEIAMPSLDQVKAWLA	0.115
HMTFPAILRELLEKHPQTGKRTTLKELGEAVGTRQQSISLYRNGDTQPSPDILVRIAAFFGVSVDYLL	-0.419
HMKRLQEQAYDYLKELILSGKMIENEIYSETKLASEIGISRTPIRDALQRLSQDGFIDIIPSKGFRIH	-0.134
HMYMKTITEQFGERLKKIRTQKSLSQEQLSYLADIDRSYISDVERGARNISLENIYKLASALNIPPYLVLL	-0.273
HMFIEHSKYKLSFKYNQLGKISNVINSNNGIIMDKHFDQNITLLAKLTENTFQEIIKHFPTIIIKRL	-3.19
HMALHLPTTTINGRQYYYFKSKEKITVYGLSKRLGLTRQEIVEHNPSAVDGIKRGSTLYFPVDEFAD	-2.09
HMTQLPEVPVERGMVLEEVQSGWVGAVTRVEKSGGMHVVALEDRRGKSRSFRLGFGFLLEGQPIRLMPPAP	-1.42
HMGEIHALIPGLVSRLFVKPGDRVENGQGLLILEAMKMENEIDSPISGVVGKIYIKAGDKVEKGELIMEIN	-0.46
HMFPELTDDEQLIVSTLAKTNDMQINMLAVRTGIPVQRMSALLFSLEMKGVVKMYAGGTYHLL	-1.05
HMDYNYLVFVTNTGPRSIAVEDLEMTVSDGKLVVSSGADGETFDLSTLTKMYFSDAAVVSINDV	-0.996
HMKSAYADVAIAKVQDYVNVRAENNEDSEVLGKLYNNSAATVLETTDDGWYKISSGSVTGYVKSEYVVVG	0.0784
HMRGPDLSKDFHEYISSQWMFFGRNAYQIAEQINKDTQLMSKYGKTTPSGVHYHIKQIQQEMEN	-0.398
HMGQKETIVDLLKTNGTMTQLALAEAIYGDKNHGPNIYSVLMGRVNSGAVLRTGSQPAYYSLSG	0.0821
HMQTKSDMVYHRVREDIVNGVFAPGERLLISAVAKQYGVSEIPVREAFRVLSQEGFLKTRPNSGFVVS	0.0933
HMNKYNNIEDLKEEDFENISEKYQVPVSFVKSKLDDLINWHEKNPQKNHYKNYLSALRDWVKRDSLKIKL	0.0328
HMNSNTIIFSQFLSEVDNGRVTQVQIQGNNIKGTLSNGKDFITYAPNDPNLIEKLTSKGVSISASPID	0.0608
HMNGDWISARQEYYIRGLWDLASRAKDEASLQAMLQRIAGVTQIEWISKEKATKVILALRDIAKK	-1.68

Sequence	soluble fraction (log2)
HMSRARSRQTSMLEAVAGLGPARRRALLKQFGGLQGVLRAGIEDLSRAPGIGPALAQAIFEHLHPGA	-0.466
HMAPGVHVEALLPYTAGSLVSQIREYGNVDAVEYRDTGILLQADVDERLAAQIMDQALEDPV	0.0408
HMASDLPTVTIMGKTFYTYVAKKGESFFGIANRFGWDPELLVKTNRELETPLDKGALIYYPVPKKPK	-0.199
HMFPNQLLISRLSNQLSASERFAAVSSIAQLKNIDYDVLHVLVHTMNSDPNSNVRLAALEALSR	-0.529
HMVWINIRDLSDLFSKSGKSENSKNILDLQTLKIEKLLGGGQINTPYTIKVKQATPSAIEKVKQAGGEVIL	-0.0218
HMAQVDAVQQVLQAFPALRSGQSQHLSQVVAALRQRGILTVGTKTTAWFAQWASVFQLLPLQVPNRIRYQS	-0.066
HMMKLSKRQEQIIAVVKEHQPVSGERISDILAVSRATLRSDLSFLTLSGILKASPKVGYTYES	-1.12
HMEILPAYRDIKKEALLGNINAEFKYVNLLLEHNYIEQAFNIIEDMKTRVDDNPEFEELKSRVADAYLMY	-1.38
HMEEKEIGQTLSVKIRENVLSKLDMTRDLEDEEVKHIIEHEIWLAAKKHYISLEERNSIKRGIFNSL	-0.573
HMYDRIKLLKLREKRGLTQYELAEKAGISVVTLNKIETSDMAKPFASTLKKIALALGVGIEELS	-0.121
HMSEQGVITAKFASIVGNQNIQLVMFPDSVYLKGQVSSEEEKKRAETVASSLIQDRKIVNLIEFE	-0.0169
HMSDEINYVIQINGKNRAEAEFGANLDKESIENLALEHERIKELLNGLTVRKIIVVPKKLVNIVA	-0.312
HMPQKSDLTMEEYNKLGLAGGSGSRKLREQVGIRLSVGYGNSKQFYNRLHTFGISLDELKTAVEEVKNG	-0.117
HMQNWFADPKFEMFEDYGDAQSFYDTETKNIYVVMAEYGQKGSNTIQEITPDSEEYIPNYEKYKEYMENK	-0.387
HMKEEVSVPDIKGMTYEEAEAKLAKYDLEIEKGETVKASEQYEEGQISSQEPEAGSKVKEGSTIVVDVVE	0.316
HMKINKQHLAFQIFGIRAKLGLSMEQFGELLGANKSSVSGWERGTVVPSSQRLKKIAELGKISLAELLTP	-1.23
HMKEAISIYPNPVKDILTIRGMDETSGVSFKLYDVTGNLLLESTHSELDMSGLNRGVYFLDIAGDVRKVVK	0.0696
HMDAHYMEMKGKTGTAFTMLRPAGKIDIEGQIFDAVAEAGFIEKGEAIRVVKYENAQLIVRK	0.11
HMQTPVTVGDTMPNLIGTPKRLLLELLNRTDITVKLTGDGYVTAQSPAAGTPIAKGMIIELSL	-0.296
